Patent US20130330324A1 (Novartis, published 2013)

Columns and labels:
[1] = target: T1, Human HER3, endogenous, on human cancer cell lines (human, UniProt P21860 20-1342); assay: cell-based or functional assay
[2] = target: T1, Human HER3, endogenous, on human cancer …; assay: cell-based or functional assay; remark: listed apart in the source
[3] = target: T2, Cyno HER3 (CD33-[Cyno HER3, residues 20-643]-TAG) (cynomolgus, UniProt G7PIG5 20-643); assay: solution equilibrium titration (SET), IgG
T2 construct: range 20-643; CD33 leader left out as signal; also called cy HER3-Tag; not shown: C-terminal TAG (e.g. FLAG TAG)

[4] = target: T3, Hu HER3 (CD33-[Human HER3, residues 20-640]-TAG) (human, UniProt P21860 20-640); assay: solution equilibrium titration (SET), IgG
T3 construct: N-terminal CD33 leader is a secretion signal and is left out; also called hu HER3-Tag; HER3-Tag; not shown: C-terminal TAG (e.g. FLAG TAG)

[5] = target: T4, Rat HER3 (CD33-[Rat HER3, residues 20-643]-TAG) (rat, UniProt Q62799 20-643); assay: solution equilibrium titration (SET), IgG
T4 construct: range 20-643; CD33 leader left out as signal; also called ra HER3-Tag; not shown: C-terminal TAG (e.g. FLAG TAG)

[6] = target: T5, Mu HER3 (CD33-[Murine HER3, residues 20-643]-TAG) (mouse, UniProt Q61526 20-643); assay: solution equilibrium titration (SET), IgG
T5 construct: range 20-643; CD33 leader left out as signal; also called mu HER3-Tag; not shown: C-terminal TAG (e.g. FLAG TAG)

[7] = target: T1, Human HER3, endogenous, on human cancer …; assay: cell-based or functional assay; remark: listed apart in the source
[8] = target: T1, Human HER3, endogenous, on human cancer …; assay: FACS titration on SK-Br-3 cells
[9] = target: T6, HER3 L268A (CD33-[Human HER3, residues 20-640, L268A]-TAG) (human, UniProt P21860 20-640); assay: ELISA titration, mutant HER3-Tag coated, antibody titrated, OD450
T6 construct: CD33 leader left out as signal; also called HER3 L268A-Tag; not shown: C-terminal TAG

[10] = target: T7, HER3 K267A (CD33-[Human HER3, residues 20-640, K267A]-TAG) (human, UniProt P21860 20-640); assay: as above
T7 construct: CD33 leader left out as signal; also called HER3 K267A-Tag; not shown: C-terminal TAG

[11] = target: T3, Hu HER3 (CD33-[Human HER3, residues …); assay: ELISA titration, wild-type HER3-Tag coated, antibody titrated, OD450

B1: MOR10703 (antibody, human IgG1, kappa, V domains shown)
VH: EVQLLESGGGLVQPGGSLRLSCAASGFTFSSYAMSWVRQAPGKGLEWVSAINSQGKSTYYADSVKGRFTISRDNSKNTLYLQMNSLRAEDTAVYYCARWGDEGFDIWGQGTLVTVSS
VL: DIQMTQSPSSLSASVGDRVTITCRASQGISNWLAWYQQKPGKAPKLLIYGASSLQSGVPSRFSGSGSGTDFTLTISSLQPEDFATYYCQQYSSFPTTFGQGTKVEIKR
notes: tested as IgG
MCF7 pHER3 % inhibition [1]: 80%
MCF7 pHER3 IC50 [1]: 333 pM
SK-Br-3 pHER3 % inhibition [1]: 69%
SK-Br-3 pHER3 IC50 [1]: 167 pM
BT-474 pAkt (S473) % inhibition [2]: 62%
MCF7 pAkt (S473) IC50 [2]: 449 pM
SK-Br-3 pAkt (S473) % inhibition [2]: 89%
SK-Br-3 pAkt (S473) IC50 [2]: 70 pM
Kd [3]: 0.023 nM
Kd [4]: 0.026 nM
Kd [5]: 0.04 nM
Kd [6]: 0.02 nM
BT-474 proliferation % inhibition at 10 µg/ml IgG [7]: 41.6%
MCF7 (neuregulin stimulated) proliferation % inhibition at 10 µg/ml IgG [7]: 81%
SK-Br-3 proliferation % inhibition at 10 µg/ml IgG [7]: 35%
EC50 [8]: 2.45 nM
binding result [9]: no binding
binding result [10]: no binding
EC50 (read off the curve) [11]: ~0.3 nM
